Four substances from patent US11672826 can be followed below.

Where two headings read alike, the source gives them in different places.

Common to all, as to test: cell-based or functional assay
In assay [1] the target is TGFβ1 (R&D systems) (UniProt P01137).
Assay [2] shares this target. The source holds these as a separate data set.
The target in assay [3] is IL2Rβ and common γ chain on 32Dβ cells.
Assay [4] deals with IL2Rαβγ on CTLL2 cells.
For assay [5], the target named is IL2Rβ and common γ chain on 32Dβ cells. This is another data set of the same source.
Assay [6] has the same target. This is another data set of the same source.
Assay [7] deals with IL-21R on B9 cells.

Chain of Human recombinant TGFβRII/Fc (P37173 24-159): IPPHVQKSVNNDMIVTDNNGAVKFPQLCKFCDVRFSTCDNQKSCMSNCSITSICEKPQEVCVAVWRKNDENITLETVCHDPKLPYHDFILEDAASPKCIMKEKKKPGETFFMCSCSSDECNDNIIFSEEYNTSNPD
Chain of TGFβ1 (R&D systems) (P01137 279-390 limits assumed): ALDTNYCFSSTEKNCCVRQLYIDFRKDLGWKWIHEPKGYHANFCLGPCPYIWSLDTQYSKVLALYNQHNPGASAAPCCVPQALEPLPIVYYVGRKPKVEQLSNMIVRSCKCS

For “Human recombinant TGFβRII/Fc (from UniProt P37173 24-159) (Fc fusion)”, the values for the IC50, TGFβ1 activity in HEK-Blue TGFβ reporter cells in assay [1] and in assay [2] were 0.461 nM and 0.559 nM, respectively.

In assay [3], “recombinant IL-2 (from UniProt P60568 21-153) (ligand)” returned an EC50 of 32Dβ cell proliferation (WST1) of 0.14 nM. The substance also registered an EC50 of CTLL-2 cell proliferation (WST1) in assay [4] of 0.548 nM.

Regarding “recombinant IL-15 (from UniProt P40933 49-162) (ligand)”, the EC50 of 32Dβ cell proliferation (WST1) in assay [3] came out at 0.0016 nM; in assay [5] it was 0.0166 nM; in assay [6] it was 0.0106 nM. The substance also showed an EC50 of CTLL2 cell proliferation (PrestoBlue) in assay [4] of 0.00495 nM. In addition, the EC50 of CTLL2 cell proliferation (WST1) in assay [4] came out at 0.00622 nM.

In assay [7], “recombinant IL-21 (from UniProt Q9HBE4 32-162) (ligand)” came in with an EC50 of B9 cell proliferation (WST1) of 72.5 nM.
